Primed or numbered codes have the meaning given here. The star is where a group is joined. Dabcyl′ = CN(C)c1ccc(/N=N/c2ccc(C(=O)*)cc2)cc1; Dnp = O=[N+]([O-])c1ccc(*)c([N+](=O)[O-])c1; fluorescein = fluorescein label
How the values were obtained:
Test in all cases: cell-based or functional assay
human Gelatinase-A [1] = target: T1, human Gelatinase-A (human, UniProt P08253 110-660, limits assumed)
T1 sequence (looked up): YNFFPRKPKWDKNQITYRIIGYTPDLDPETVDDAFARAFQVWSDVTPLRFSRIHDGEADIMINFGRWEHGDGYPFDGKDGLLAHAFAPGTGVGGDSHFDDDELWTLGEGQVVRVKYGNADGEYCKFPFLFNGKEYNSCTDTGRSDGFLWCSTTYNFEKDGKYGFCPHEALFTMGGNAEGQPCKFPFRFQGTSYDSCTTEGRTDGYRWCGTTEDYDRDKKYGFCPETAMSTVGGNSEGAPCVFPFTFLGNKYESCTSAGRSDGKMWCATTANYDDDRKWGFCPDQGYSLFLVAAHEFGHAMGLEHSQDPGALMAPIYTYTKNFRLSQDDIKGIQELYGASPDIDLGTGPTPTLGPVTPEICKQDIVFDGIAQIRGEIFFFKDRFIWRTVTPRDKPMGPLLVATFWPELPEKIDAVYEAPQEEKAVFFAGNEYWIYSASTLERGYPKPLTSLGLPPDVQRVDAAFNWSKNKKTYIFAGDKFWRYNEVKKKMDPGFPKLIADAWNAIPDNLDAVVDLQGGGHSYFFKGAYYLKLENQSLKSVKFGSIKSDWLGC

gelatinase B [2] = target: T2, gelatinase B (UniProt P14780 107-707, limits assumed)
collagenase 1 [3] = target: T3, collagenase 1 (UniProt P03956 100-469, limits assumed)
T3 sequence (looked up): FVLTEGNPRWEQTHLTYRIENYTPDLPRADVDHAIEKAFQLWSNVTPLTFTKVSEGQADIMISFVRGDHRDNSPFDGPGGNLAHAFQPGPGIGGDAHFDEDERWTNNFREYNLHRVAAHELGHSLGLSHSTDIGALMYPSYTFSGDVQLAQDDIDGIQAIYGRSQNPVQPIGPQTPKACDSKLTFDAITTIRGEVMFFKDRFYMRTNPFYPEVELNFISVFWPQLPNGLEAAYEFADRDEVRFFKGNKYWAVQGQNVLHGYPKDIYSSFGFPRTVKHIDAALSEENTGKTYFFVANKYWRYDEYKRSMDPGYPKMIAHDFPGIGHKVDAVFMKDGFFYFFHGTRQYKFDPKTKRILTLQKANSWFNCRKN

stromelysin 1 [4] = target: T4, stromelysin 1 (UniProt P08254 100-477, limits assumed)
human Collagenase-3 = human Collagenase-3 (human, UniProt P45452 104-471, limits assumed)
human Gelatinase-A [5] = target: T1, human Gelatinase-A; remark: listed apart in the source
gelatinase B [6] = target: T2, gelatinase B; remark: listed apart in the source
collagenase 1 [7] = target: T3, collagenase 1; remark: listed apart in the source
stromelysin 1 [8] = target: T4, stromelysin 1; remark: listed apart in the source
human Gelatinase-A [9] = target: T1, human Gelatinase-A; remark: listed apart in the source
gelatinase B [10] = target: T2, gelatinase B; remark: listed apart in the source
collagenase 1 [11] = target: T3, collagenase 1; remark: listed apart in the source
stromelysin 1 [12] = target: T4, stromelysin 1; remark: listed apart in the source
collagenase 1 [13] = target: T3, collagenase 1; remark: listed apart in the source

T2 sequence (P14780 107-707 limits assumed): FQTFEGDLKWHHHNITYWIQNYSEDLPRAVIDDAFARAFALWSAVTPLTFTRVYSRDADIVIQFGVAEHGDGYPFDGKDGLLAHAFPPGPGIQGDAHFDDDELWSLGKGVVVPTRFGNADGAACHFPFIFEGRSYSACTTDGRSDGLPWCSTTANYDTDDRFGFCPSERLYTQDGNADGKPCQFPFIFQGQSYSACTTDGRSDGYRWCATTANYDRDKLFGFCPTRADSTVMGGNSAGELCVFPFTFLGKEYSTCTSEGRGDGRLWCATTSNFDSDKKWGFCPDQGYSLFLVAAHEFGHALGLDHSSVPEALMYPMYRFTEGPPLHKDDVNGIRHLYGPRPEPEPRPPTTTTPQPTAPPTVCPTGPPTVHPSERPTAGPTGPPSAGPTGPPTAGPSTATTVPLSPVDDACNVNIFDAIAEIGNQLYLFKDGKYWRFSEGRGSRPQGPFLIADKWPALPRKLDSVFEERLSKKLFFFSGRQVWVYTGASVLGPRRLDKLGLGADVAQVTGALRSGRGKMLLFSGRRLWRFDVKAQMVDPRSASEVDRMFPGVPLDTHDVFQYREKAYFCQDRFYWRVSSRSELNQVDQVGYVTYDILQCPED
T4 sequence (P08254 100-477 limits assumed): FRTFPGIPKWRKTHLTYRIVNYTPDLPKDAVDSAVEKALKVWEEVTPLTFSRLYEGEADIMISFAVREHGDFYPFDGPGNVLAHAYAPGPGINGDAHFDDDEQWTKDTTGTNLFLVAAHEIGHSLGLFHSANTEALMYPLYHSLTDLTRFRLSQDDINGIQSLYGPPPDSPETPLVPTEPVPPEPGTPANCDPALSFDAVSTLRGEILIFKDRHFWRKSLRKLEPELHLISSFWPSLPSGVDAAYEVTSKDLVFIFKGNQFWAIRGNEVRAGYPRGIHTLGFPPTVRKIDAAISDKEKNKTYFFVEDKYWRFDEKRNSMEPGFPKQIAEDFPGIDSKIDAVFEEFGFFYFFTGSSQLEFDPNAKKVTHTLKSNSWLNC

B1: Dnp-GPSGIHL-NH2 (peptide)
peptide: Dnp-GPSGIHL-NH2
SMILES: CC[C@H](C)[C@H](NC(=O)CNC(=O)[C@H](CO)NC(=O)[C@@H]1CCCN1C(=O)CNc1ccc([N+](=O)[O-])cc1[N+](=O)[O-])C(=O)N[C@@H](Cc1c[nH]cn1)C(=O)N[C@@H](CC(C)C)C(N)=O
Human Gelatinase-A [1]
  Selectivity v. Coll-3: 8 unitless
Gelatinase B [2]
  Selectivity v. Coll-3: 6 unitless
Collagenase 1 [3]
  Selectivity v. Coll-3: 3440 unitless
Stromelysin 1 [4]
  Selectivity v. Coll-3: 2040 unitless

B2: Dnp-GPHPFRG-NH2 (peptide)
peptide: Dnp-GPHPFRG-NH2
SMILES: N=C(N)NCCC[C@H](NC(=O)[C@H](Cc1ccccc1)NC(=O)[C@@H]1CCCN1C(=O)[C@H](Cc1c[nH]cn1)NC(=O)[C@@H]1CCCN1C(=O)CNc1ccc([N+](=O)[O-])cc1[N+](=O)[O-])C(=O)NCC(N)=O
Human Gelatinase-A [1]
  Selectivity v. Coll-3: 17 unitless
Gelatinase B [2]
  Selectivity v. Coll-3: 8 unitless
Collagenase 1 [3]
  Selectivity v. Coll-3: 3350 unitless
Stromelysin 1 [4]
  Selectivity v. Coll-3: 2300 unitless

B3: Dnp-GPVNLHG-NH2 (peptide)
peptide: Dnp-GPVNLHG-NH2
SMILES: CC(C)C[C@H](NC(=O)[C@H](CC(N)=O)NC(=O)[C@@H](NC(=O)[C@@H]1CCCN1C(=O)CNc1ccc([N+](=O)[O-])cc1[N+](=O)[O-])C(C)C)C(=O)N[C@@H](Cc1c[nH]cn1)C(=O)NCC(N)=O
Human Gelatinase-A [1]
  Selectivity v. Coll-3: 25 unitless
Gelatinase B [2]
  Selectivity v. Coll-3: 11 unitless
Collagenase 1 [3]
  Selectivity v. Coll-3: 459 unitless
Stromelysin 1 [4]
  Selectivity v. Coll-3: 1260 unitless

B4: Dnp-GPKGMRG-NH2 (peptide)
peptide: Dnp-GPKGMRG-NH2
SMILES: CSCC[C@H](NC(=O)CNC(=O)[C@H](CCCCN)NC(=O)[C@@H]1CCCN1C(=O)CNc1ccc([N+](=O)[O-])cc1[N+](=O)[O-])C(=O)N[C@@H](CCCNC(=N)N)C(=O)NCC(N)=O
Human Gelatinase-A [1]
  Selectivity v. Coll-3: 7 unitless
Gelatinase B [2]
  Selectivity v. Coll-3: 3 unitless
Collagenase 1 [3]
  Selectivity v. Coll-3: 1570 unitless
Stromelysin 1 [4]
  Selectivity v. Coll-3: 13200 unitless

B5: Dabcyl-GPVNLHGC(Flu)-NH2 (peptide)
peptide: {Dabcyl′}-GPVNLHGC(fluorescein)-NH2
Human Collagenase-3
  increase in specificity with type II collagen: 2.5 fold
Human Gelatinase-A [5]
  Selectivity v Col-3: 2.3 unitless
  Selectivity v Col-3, + Gel: 26.5 unitless
Gelatinase B [6]
  Selectivity v Col-3: 0.7 unitless
  Selectivity v Col-3, + Gel: 6 unitless
Collagenase 1 [7]
  Selectivity v Col-3: 128 unitless
  Selectivity v Col-3, + Gel: 92.3 unitless
Stromelysin 1 [8]
  Selectivity v Col-3: 71.3 unitless
  Selectivity v Col-3, + Gel: 72.5 unitless
Human Gelatinase-A [9]
  Improvement In Selectivity for 44 ug/ml Type II Collagen vs no Type II Collagen: 80 fold
  Selectivity v Col-3, + 1.6 ug/ml TIICol: 9.3 unitless
  Selectivity v Col-3, + 4.9 ug/ml TIICol: 26.3 unitless
  Selectivity v Col-3, + 15 ug/ml TIICol: 75.9 unitless
  Selectivity v Col-3, + 44 ug/ml TIICol: 465 unitless
  Selectivity v Col-3, + .18 ug/ml TIICol: 7.7 unitless
  Selectivity v Col-3, + .55 ug/ml TIICol: 9.9 unitless
  Selectivity v Col-3, no TIICol: 5.8 unitless
Gelatinase B [10]
  Improvement In Selectivity for 44 ug/ml Type II Collagen vs no Type II Collagen: 46 fold
  Selectivity v Col-3, + 1.6 ug/ml TIICol: 3 unitless
  Selectivity v Col-3, + 4.9 ug/ml TIICol: 5.7 unitless
  Selectivity v Col-3, + 15 ug/ml TIICol: 15.2 unitless
  Selectivity v Col-3, + 44 ug/ml TIICol: 58.8 unitless
  Selectivity v Col-3, + .18 ug/ml TIICol: 1.8 unitless
  Selectivity v Col-3, + .55 ug/ml TIICol: 2.2 unitless
  Selectivity v Col-3, no TIICol: 1.3 unitless
Collagenase 1 [11]
  Improvement In Selectivity for 44 ug/ml Type II Collagen vs no Type II Collagen: 2.5 fold
  Selectivity v Col-3, + 1.6 ug/ml TIICol: 227 unitless
  Selectivity v Col-3, + 4.9 ug/ml TIICol: 265 unitless
  Selectivity v Col-3, + 15 ug/ml TIICol: 355 unitless
  Selectivity v Col-3, + 44 ug/ml TIICol: 424 unitless
  Selectivity v Col-3, + .18 ug/ml TIICol: 190 unitless
  Selectivity v Col-3, + .55 ug/ml TIICol: 221 unitless
  Selectivity v Col-3, no TIICol: 166 unitless
Stromelysin 1 [12]
  Improvement In Selectivity for 44 ug/ml Type II Collagen vs no Type II Collagen: 2.5 fold
  Selectivity v Col-3, + 1.6 ug/ml TIICol: 389 unitless
  Selectivity v Col-3, + 4.9 ug/ml TIICol: 335 unitless
  Selectivity v Col-3, + 15 ug/ml TIICol: 447 unitless
  Selectivity v Col-3, + 44 ug/ml TIICol: 476 unitless
  Selectivity v Col-3, + .18 ug/ml TIICol: 263 unitless
  Selectivity v Col-3, + .55 ug/ml TIICol: 281 unitless
  Selectivity v Col-3, no TIICol: 192 unitless

B6: Dnp-GPLQFRG-NH2 (peptide)
peptide: Dnp-GPLQFRG-NH2
SMILES: CC(C)C[C@H](NC(=O)[C@@H]1CCCN1C(=O)CNc1ccc([N+](=O)[O-])cc1[N+](=O)[O-])C(=O)N[C@@H](CCC(N)=O)C(=O)N[C@@H](Cc1ccccc1)C(=O)N[C@@H](CCCNC(=N)N)C(=O)NCC(N)=O
Human Gelatinase-A [1]
  Selectivity v. Coll-3: 32 unitless
Gelatinase B [2]
  Selectivity v. Coll-3: 7 unitless
Collagenase 1 [3]
  Selectivity v. Coll-3: 3680 unitless
Stromelysin 1 [4]
  Selectivity v. Coll-3: 700 unitless

B7: Dnp-VTPYNMRG-NH2 (peptide)
peptide: Dnp-VTPYNMRG-NH2
SMILES: CSCC[C@H](NC(=O)[C@H](CC(N)=O)NC(=O)[C@H](Cc1ccc(O)cc1)NC(=O)[C@@H]1CCCN1C(=O)[C@@H](NC(=O)[C@@H](Nc1ccc([N+](=O)[O-])cc1[N+](=O)[O-])C(C)C)[C@@H](C)O)C(=O)N[C@@H](CCCNC(=N)N)C(=O)NCC(N)=O
Human Gelatinase-A [1]
  Selectivity v. Coll-3: 31 unitless
Gelatinase B [2]
  Selectivity v. Coll-3: 4 unitless
Collagenase 1 [3]
  Selectivity v. Coll-3: 39 unitless
Stromelysin 1 [4]
  Selectivity v. Coll-3: 1000 unitless

B8: Dabcyl-GPHPFRGC(Flu)-NH2 (peptide)
peptide: {Dabcyl′}-GPHPFRGC(fluorescein)-NH2
Human Gelatinase-A [5]
  Selectivity v Col-3: 14.8 unitless
Gelatinase B [6]
  Selectivity v Col-3: 2.6 unitless
  Selectivity v Col-3, + Gel: 11.6 unitless
Collagenase 1 [7]
  Selectivity v Col-3: 87.8 unitless
  Selectivity v Col-3, + Gel: 168 unitless
Stromelysin 1 [8]
  Selectivity v Col-3: 43.9 unitless
  Selectivity v Col-3, + Gel: 53.8 unitless

B9: Dnp-GPYGMRA-NH2 (peptide)
peptide: Dnp-GPYGMRA-NH2
SMILES: CSCC[C@H](NC(=O)CNC(=O)[C@H](Cc1ccc(O)cc1)NC(=O)[C@@H]1CCCN1C(=O)CNc1ccc([N+](=O)[O-])cc1[N+](=O)[O-])C(=O)N[C@@H](CCCNC(=N)N)C(=O)N[C@@H](C)C(N)=O
Human Gelatinase-A [1]
  Selectivity v. Coll-3: 16 unitless
Gelatinase B [2]
  Selectivity v. Coll-3: 6 unitless
Collagenase 1 [3]
  Selectivity v. Coll-3: 212 unitless
Stromelysin 1 [4]
  Selectivity v. Coll-3: 404 unitless

B10: Dabcyl-GPLGMRGC(Fluorescein)-NH2 (peptide)
peptide: {Dabcyl′}-GPLGMRGC(fluorescein)-NH2
Collagenase 1 [13]
  selectivity towards Col-3: 215 fold
Human Gelatinase-A [5]
  Selectivity v Col-3, + Gel: 25.8 unitless
Gelatinase B [6]
  Selectivity v Col-3, + Gel: 6.3 unitless
Collagenase 1 [7]
  Selectivity v Col-3, + Gel: 78.4 unitless
Stromelysin 1 [8]
  Selectivity v Col-3, + Gel: 769 unitless

B11: Dnp-GPLSFQG-NH2 (peptide)
peptide: Dnp-GPLSFQG-NH2
SMILES: CC(C)C[C@H](NC(=O)[C@@H]1CCCN1C(=O)CNc1ccc([N+](=O)[O-])cc1[N+](=O)[O-])C(=O)N[C@@H](CO)C(=O)N[C@@H](Cc1ccccc1)C(=O)N[C@@H](CCC(N)=O)C(=O)NCC(N)=O
Human Gelatinase-A [1]
  Selectivity v. Coll-3: 21 unitless
Gelatinase B [2]
  Selectivity v. Coll-3: 5 unitless
Collagenase 1 [3]
  Selectivity v. Coll-3: 688 unitless
Stromelysin 1 [4]
  Selectivity v. Coll-3: 191 unitless

B12: Dnp-GPLSIQD-NH2 (peptide)
peptide: Dnp-GPLSIQD-NH2
SMILES: CC[C@H](C)[C@H](NC(=O)[C@H](CO)NC(=O)[C@H](CC(C)C)NC(=O)[C@@H]1CCCN1C(=O)CNc1ccc([N+](=O)[O-])cc1[N+](=O)[O-])C(=O)N[C@@H](CCC(N)=O)C(=O)N[C@@H](CC(=O)O)C(N)=O
Human Gelatinase-A [1]
  Selectivity v. Coll-3: 65 unitless
Gelatinase B [2]
  Selectivity v. Coll-3: 6 unitless
Collagenase 1 [3]
  Selectivity v. Coll-3: 45 unitless
Stromelysin 1 [4]
  Selectivity v. Coll-3: 590 unitless

B13: Dnp-GPKGITS-NH2 (peptide)
peptide: Dnp-GPKGITS-NH2
SMILES: CC[C@H](C)[C@H](NC(=O)CNC(=O)[C@H](CCCCN)NC(=O)[C@@H]1CCCN1C(=O)CNc1ccc([N+](=O)[O-])cc1[N+](=O)[O-])C(=O)N[C@H](C(=O)N[C@@H](CO)C(N)=O)[C@@H](C)O
Human Gelatinase-A [1]
  Selectivity v. Coll-3: 6 unitless
Gelatinase B [2]
  Selectivity v. Coll-3: 2 unitless
Collagenase 1 [3]
  Selectivity v. Coll-3: 548 unitless
Stromelysin 1 [4]
  Selectivity v. Coll-3: 37000 unitless

Reference: US20030229005A1 (BIOZYME, published 2003)
